# Data from patent US20060258562.
# Target: STAT3 (Signal Transducer and Activator of Transcription 3), P42227
# Sequence (P42227 2-770): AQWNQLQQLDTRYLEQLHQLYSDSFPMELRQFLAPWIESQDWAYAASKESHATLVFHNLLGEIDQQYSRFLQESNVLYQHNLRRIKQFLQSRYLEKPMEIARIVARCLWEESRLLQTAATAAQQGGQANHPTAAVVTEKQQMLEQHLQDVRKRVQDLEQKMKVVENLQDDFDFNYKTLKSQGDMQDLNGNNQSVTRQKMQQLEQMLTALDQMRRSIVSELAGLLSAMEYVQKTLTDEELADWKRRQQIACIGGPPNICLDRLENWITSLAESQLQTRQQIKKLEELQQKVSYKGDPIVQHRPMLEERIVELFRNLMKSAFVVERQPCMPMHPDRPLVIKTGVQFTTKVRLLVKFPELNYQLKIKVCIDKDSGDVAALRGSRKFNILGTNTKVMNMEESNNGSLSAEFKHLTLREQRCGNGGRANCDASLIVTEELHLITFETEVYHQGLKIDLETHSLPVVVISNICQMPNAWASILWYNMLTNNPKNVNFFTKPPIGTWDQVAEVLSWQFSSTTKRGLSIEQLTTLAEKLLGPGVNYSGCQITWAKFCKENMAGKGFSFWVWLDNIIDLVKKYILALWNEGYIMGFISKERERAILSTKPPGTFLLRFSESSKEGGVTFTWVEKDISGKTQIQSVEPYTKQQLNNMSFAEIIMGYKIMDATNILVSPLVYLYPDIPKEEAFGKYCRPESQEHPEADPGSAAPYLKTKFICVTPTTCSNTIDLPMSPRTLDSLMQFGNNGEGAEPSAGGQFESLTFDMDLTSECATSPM
protein,measurement,value
PKCδ (protein kinase C delta) (protein) MAPFLRISFNSYELGSLQVEDEASQPFCAVKMKEALSTERGKTLVQKKPTMYPEWKTTFDAHIYEGRVIQIVLMRAAEDPVSEVTVGVSVLAERCKKNNGKAEFWLDLQPQAKVLMCVQYFLEDGDCKQSMRSEEEAKFPTMNRRGAIKQAKIHYIKNHEFIATFFGQPTFCSVCKEFVWGLNKQGYKCRQCNAAIHKKCIDKIIGRCTGTATNSRDTIFQKERFNIDMPHRFKVYNYMSPTFCDHCGSLLWGLVKQGLKCEDCGMNVHHKCREKVANLCGINQKLLAEALNQVTQRSSRKLDTTESVGIYQGFEKKPEVSGSDILDNNGTYGKIWEGSTRCTLENFTFQKVLGKGSFGKVLLAELKGKDKYFAIKCLKKDVVLIDDDVECTMVEKRVLALAWESPFLTHLICTFQTKDHLFFVMEFLNGGDLMFHIQDKGRFELYRATFYAAEIICGLQFLHSKGIIYRDLKLDNVMLDRDGHIKIADFGMCKENIFGEGRASTFCGTPDYIAPEILQGLKYSFSVDWWSFGVLLYEMLIGQSPFHGDDEDELFESIRVDTPHYPRWITKESKDIMEKLFERDPDKRLGVTGNIRIHPFFKTINWSLLEKRKVEPPFKPKVKSPSDYSNFDPEFLNEKPQLSFSDKNLIDSMDQEAFHGFSFVNPKFEQFLDI,"immunofluorescence with antiphospho-Tyr-705-STAT3 antibody after insulin stimulation, with or without rottlerin","Following insulin stimulation, PKCδ is activated and in turn phosphorylates and activates STAT3"
